Experimental data reported in US20260049148.

Molecular target: internally quenched peptide probe (MCA)-Gly-Ser-Ala-Ile-Ala-Leu-Tyr-Gly-Gly-Ser-Lys (DNP)-D-Arg with CM AIALY (SEQ ID NO: 5)

B1: human recombinant MMP2 (R&D Systems, catalog No: 902-MP) (protein)
chain: YNFFPRKPKWDKNQITYRIIGYTPDLDPETVDDAFARAFQVWSDVTPLRFSRIHDGEADIMINFGRWEHGDGYPFDGKDGLLAHAFAPGTGVGGDSHFDDDELWTLGEGQVVRVKYGNADGEYCKFPFLFNGKEYNSCTDTGRSDGFLWCSTTYNFEKDGKYGFCPHEALFTMGGNAEGQPCKFPFRFQGTSYDSCTTEGRTDGYRWCGTTEDYDRDKKYGFCPETAMSTVGGNSEGAPCVFPFTFLGNKYESCTSAGRSDGKMWCATTANYDDDRKWGFCPDQGYSLFLVAAHEFGHAMGLEHSQDPGALMAPIYTYTKNFRLSQDDIKGIQELYGASPDIDLGTGPTPTLGPVTPEICKQDIVFDGIAQIRGEIFFFKDRFIWRTVTPRDKPMGPLLVATFWPELPEKIDAVYEAPQEEKAVFFAGNEYWIYSASTLERGYPKPLTSLGLPPDVQRVDAAFNWSKNKKTYIFAGDKFWRYNEVKKKMDPGFPKLIADAWNAIPDNLDAVVDLQGGGHSYFFKGAYYLKLENQSLKSVKFGSIKSDWLGC
Protein B1 has a Probe Cleavage (kcat/KM) of 39000 M⁻¹ s⁻¹ and a Probe Cleavage (pM/s) of 135 pM/s.
